Series [1] has as its system BC19 CAR on CAR-T cells (anti-BCMA scFv, humanized anti-CD19 scFv, hinge). The experiment in a line: flow cytometry. Conditions: SPR: Biacore 1K, CM5 chip, protein coupled at 20 ug/mL in sodium acetate pH 5.0 (running buffer not given); cell binding: D-PBS, 4.5 g/L glucose, 5 mM MgCl2, 0. On the technique in general: In flow cytometry, cells or beads pass a laser one at a time.

Series [2] relates to BCMA-CD19-His fusion protein (bispecific BC19 CAR ectodomain: anti-BCMA scFv + humanized anti-CD19 scFv + hinge). The experiment in a line: SPR. Conditions: multi-cycle kinetics, 1:1 fit, 7.8-125 nM aptamer; SPR: Biacore 1K, CM5 chip, protein coupled at 20 ug/mL in sodium acetate pH 5.0 (running buffer not given); cell binding: D-PBS, 4.5 g/L glucose, 5 mM MgCl2, 0. (In general: Surface plasmon resonance follows binding to a sensor surface in real time, without labels.)

In general, Kd refers to the free concentration of one partner at which half of the binding sites on the other are occupied at equilibrium, for simple one-to-one binding.

On to “TTCAGCACTCCACGCATAGCACGCTGCCGTGTGCTGCATGTGGTCGTGTGTCCGTGCCTATGCGTGCTACCGTGAA [FAM-Aptamer A3]”, for which, in series [1], the dissociation constant Kd was determined as 17 nM.
Regarding “TTCAGCACTCCACGCATAGCACGCTGCCGTGTGCTGCATGTGGTCGTGTGTCCGTGCCTATGCGTGCTACCGTGAA [Aptamer A3]”, the Kd in series [2] amounted to 37 nM.

For the origin of these results see article PMC12302554.
